Laboratory results reported in PMC3760018 (European journal of immunology, 2013).
Numbering of substitutions follows the chain as printed. In names and notes the source's numbering stands.

B1: recombinant C4BP α-chain WT (natural protein, human, UniProt P04003 49-597, looked up)
chain: NCGPPPTLSFAAPMDITLTETRFKTGTTLKYTCLPGYVRSHSTQTLTCNSDGEWVYNTFCIYKRCRHPGELRNGQVEIKTDLSFGSQIEFSCSEGFFLIGSTTSRCEVQDRGVGWSHPLPQCEIVKCKPPPDIRNGRHSGEENFYAYGFSVTYSCDPRFSLLGHASISCTVENETIGVWRPSPPTCEKITCRKPDVSHGEMVSGFGPIYNYKDTIVFKCQKGFVLRGSSVIHCDADSKWNPSPPACEPNSCINLPDIPHASWETYPRPTKEDVYVVGTVLRYRCHPGYKPTTDEPTTVICQKNLRWTPYQGCEALCCPEPKLNNGEITQHRKSRPANHCVYFYGDEISFSCHETSRFSAICQGDGTWSPRTPSCGDICNFPPKIAHGHYKQSSSYSFFKEEIIYECDKGYILVGQAKLSCSYSHWSAPAPQCKALCRKPELVNGRLSVDKDQYVEPENVTIQCDSGYGVVGPQSITCSGNRTWYPEVPKCEWETPEGCEQVLTGKRLMQCLPNPEDVKMALEVYKLSLEIEQLELQRDSARQSTLDKEL
B2: recombinant C4BP α-chain I224T (natural protein, human, UniProt P04003 49-597, looked up)
chain: B1 chain with I176T
B3: recombinant C4BP α-chain I300T (natural protein, human, UniProt P04003 49-597, looked up)
chain: B1 chain with I252T
B4: recombinant C4BP α-chain G423E (natural protein, human, UniProt P04003 49-597, looked up)
chain: B1 chain with G375E
B5: recombinant C4BP α-chain R120H (natural protein, human, UniProt P04003 49-597, looked up)
chain: B1 chain with R72H
B6: recombinant C4BP α-chain I126T (natural protein, human, UniProt P04003 49-597, looked up)
chain: B1 chain with I78T
B7: recombinant C4BP α-chain D284E (natural protein, human, UniProt P04003 49-597, looked up)
chain: B1 chain with D236E

Assays:
[1] = biological target: recombinant C4BP α-chain P4Q (human) (UniProt P04003); assay: non-reducing SDS-PAGE
non-reducing SDS-PAGE = biological target: the molecule itself; assay: non-reducing SDS-PAGE

Molecule | stoichiometry N [1] | stoichiometry N (non-reducing SDS-PAGE)
recombinant C4BP α-chain P4Q (from UniProt P04003 49-597) (natural protein) | 6 | –
B1 | – | 6
B2 | – | 6
B3 | – | 6
B4 | – | 6
B5 | – | 6
B6 | – | 6
B7 | – | 6
